These results are taken from US20250025544A1.

In assay [1] the target is … (EBV LMP2A, epitope 2) presented by HLA-A*0201 (human; EBV). As to the kind of experiment: cell-based or functional assay.
Assay [2] addresses … (HCMV pp65, epitope 1) presented by HLA-A*0201 (human; HCMV). As to the kind of experiment: cell-based or functional assay.
Where [3] appears, read: scale: luciferase induction relative to uninfected controls.

In the case of “TCR recognizing … presented by A*0201 (PDB #3REV), expressed on Jurkat-Lucia NFAT reporter T cells”, in assay [1], the in vitro T cell activation assay (luciferase), targeting short cassette A (luciferase induction) amounted to 6.1; the in vitro T cell activation assay (luciferase), targeting short cassette B (luciferase induction) stood at 6.3; the in vitro T cell activation assay (luciferase), targeting short cassette C (luciferase induction) stood at 7.6; the in vitro T cell activation assay (luciferase), targeting short cassette D (luciferase induction) amounted to 7. In assay [1], the in vitro T cell activation assay (luciferase), targeting short cassette E (luciferase induction) was determined as 5.9; the in vitro T cell activation assay (luciferase), targeting short cassette F (luciferase induction) is 3.7; the in vitro T cell activation assay (luciferase), targeting short cassette G (luciferase induction) is 7.6; the in vitro T cell activation assay (luciferase), targeting short cassette H (luciferase induction) came out at 5.4. In assay [1], this substance had an in vitro T cell activation assay (luciferase), targeting short cassette I (luciferase induction) of 6.2; an in vitro T cell activation assay (luciferase), targeting short cassette J (luciferase induction) of 6.4; an induction of luciferase, short cassette AAY (luciferase induction) of 11.3; a luciferase induction, short cassette 9AA of 12. For the same substance, in assay [1], the luciferase induction, short cassette 17AA was 10.3; the luciferase induction, short cassette 25AA worked out at 14.6; the luciferase induction, short cassette AAY was determined as 11.3; the luciferase induction, short cassette DPP came to 1.1. This substance also yielded a luciferase induction, short cassette RR in assay [1] of 8.5.
In assay [2], “TCR recognizing … presented by A*0201 (PDB #5D2N), expressed on Jurkat-Lucia NFAT reporter T cells” returned an in vitro T cell activation assay (luciferase), targeting short cassette A (luciferase induction) of 32.5; an in vitro T cell activation assay (luciferase), targeting short cassette B (luciferase induction) of 31.8; an in vitro T cell activation assay (luciferase), targeting short cassette C (luciferase induction) of 29.1; an in vitro T cell activation assay (luciferase), targeting short cassette D (luciferase induction) of 29.1. Moreover, in assay [2], the in vitro T cell activation assay (luciferase), targeting short cassette E (luciferase induction) was 28.4; the in vitro T cell activation assay (luciferase), targeting short cassette F (luciferase induction) turned out to be 20.4; the in vitro T cell activation assay (luciferase), targeting short cassette G (luciferase induction) amounted to 35; the in vitro T cell activation assay (luciferase), targeting short cassette H (luciferase induction) worked out at 30.3. In assay [2], this substance showed an in vitro T cell activation assay (luciferase), targeting short cassette I (luciferase induction) of 22.5; an in vitro T cell activation assay (luciferase), targeting short cassette J (luciferase induction) of 38.1; an induction of luciferase, short cassette AAY (luciferase induction) of 24.5. For the same substance, in assay [2] (setting [3]), the luciferase induction, short cassette 9AA worked out at 33.6; the luciferase induction, short cassette 17AA was found to be 42.8; the luciferase induction, short cassette 25AA came out at 42.3; the luciferase induction, short cassette AAY stood at 24.5. In assay [2] (setting [3]), this substance yielded a luciferase induction, short cassette DPP of 0.9 and a luciferase induction, short cassette RR of 21.7.
